Biological target: human IL-12 receptor (IL-12R) (human) (UniProt P42701)
Experiment: cell-based or functional assay

Mean Fold Reduction (potency vs IL-12 WT by EC50; HEK-Blue IL-12 STAT4/SEAP reporter): 1 fold
Substance: mIL-12-Fc-wt (Fc fusion)
